Assay results as given in IntAct's records for PubMed 25416956.

B1: EF-hand domain-containing protein 1 (Homo sapiens), Q5JVL4 (parent)
chain: MVSNPVHGLPFLPGTSFKDSTKTAFHRSQTLSYRNGYAIVRRPTVGIGGDRLQFNQLSQAELDELASKAPVLTYGQPKQAPPADFIPAHVAFDKKVLKFDAYFQEDVPMSTEEQYRIRQVNIYYYLEDDSMSVIEPVVENSGILQGKLIKRQRLAKNDRGDHYHWKDLNRGINITIYGKTFRVVDCDQFTQVFLESQGIELNPPEKMALDPYTELRKQPLRKYVTPSDFDQLKQFLTFDKQVLRFYAIWDDTDSMYGECRTYIIHYYLMDDTVEIREVHERNDGRDPFPLLMNRQRVPKVLVENAKNFPQCVLEISDQEVLEWYTAKDFIVGKSLTILGRTFFIYDCDPFTRRYYKEKFGITDLPRIDVSKREPPPVKQELPPYNGFGLVEDSAQNCFALIPKAPKKDVIKMLVNDNKVLRYLAVLESPIPEDKDRRFVFSYFLATDMISIFEPPVRNSGIIGGKYLGRTKVVKPYSTVDNPVYYGPSDFFIGAVIEVFGHRFIILDTDEYVLKYMESNAAQYSPEALASIQNHVRKREAPAPEAESKQTEKDPGVQELEALIDTIQKQLKDHSCKDNIREAFQIYDKEASGYVDRDMFFKICESLNVPVDDSLVKELIRMCSHGEGKINYYNFVRAFSN
B2: Fructose-1,6-bisphosphatase 1 (Homo sapiens), P09467 (parent)
chain: MADQAPFDTDVNTLTRFVMEEGRKARGTGELTQLLNSLCTAVKAISSAVRKAGIAHLYGIAGSTNVTGDQVKKLDVLSNDLVMNMLKSSFATCVLVSEEDKHAIIVEPEKRGKYVVCFDPLDGSSNIDCLVSVGTIFGIYRKKSTDEPSEKDALQPGRNLVAAGYALYGSATMLVLAMDCGVNCFMLDPAIGEFILVDKDVKIKKKGKIYSLNEGYARDFDPAVTEYIQRKKFPPDNSAPYGARYVGSMVADVHRTLVYGGIFLYPANKKSPNGKLRLLYECNPMAYVMEKAGGMATTGKEAVLDVIPTDIHQRAPVILGSPDDVLEFLKVYEKHSAQ
partner: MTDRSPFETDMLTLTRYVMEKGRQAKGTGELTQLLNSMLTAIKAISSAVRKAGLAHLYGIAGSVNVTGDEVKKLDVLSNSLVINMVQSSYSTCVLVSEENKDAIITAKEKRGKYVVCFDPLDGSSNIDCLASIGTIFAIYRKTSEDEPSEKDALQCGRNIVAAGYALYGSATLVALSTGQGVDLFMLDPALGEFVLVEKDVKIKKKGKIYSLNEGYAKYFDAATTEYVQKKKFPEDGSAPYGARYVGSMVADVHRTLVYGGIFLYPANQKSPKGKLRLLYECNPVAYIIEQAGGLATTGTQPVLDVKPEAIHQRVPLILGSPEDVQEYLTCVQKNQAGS
B3: Lipopolysaccharide-induced tumor necrosis factor-alpha factor (Homo sapiens), Q99732 (parent)
chain: MSVPGPYQAATGPSSAPSAPPSYEETVAVNSYYPTPPAPMPGPTTGLVTGPDGKGMNPPSYYTQPAPIPNNNPITVQTVYVQHPITFLDRPIQMCCPSCNKMIVSQLSYNAGALTWLSCGSLCLLGCIAGCCFIPFCVDALQDVDHYCPNCRALLGTYKRL
B4: Keratin, type II cytoskeletal 6A (Homo sapiens), P02538 (parent)
chain: MASTSTTIRSHSSSRRGFSANSARLPGVSRSGFSSVSVSRSRGSGGLGGACGGAGFGSRSLYGLGGSKRISIGGGSCAISGGYGSRAGGSYGFGGAGSGFGFGGGAGIGFGLGGGAGLAGGFGGPGFPVCPPGGIQEVTVNQSLLTPLNLQIDPTIQRVRAEEREQIKTLNNKFASFIDKVRFLEQQNKVLETKWTLLQEQGTKTVRQNLEPLFEQYINNLRRQLDSIVGERGRLDSELRGMQDLVEDFKNKYEDEINKRTAAENEFVTLKKDVDAAYMNKVELQAKADTLTDEINFLRALYDAELSQMQTHISDTSVVLSMDNNRNLDLDSIIAEVKAQYEEIAQRSRAEAESWYQTKYEELQVTAGRHGDDLRNTKQEIAEINRMIQRLRSEIDHVKKQCANLQAAIADAEQRGEMALKDAKNKLEGLEDALQKAKQDLARLLKEYQELMNVKLALDVEIATYRKLLEGEECRLNGEGVGQVNISVVQSTVSSGYGGASGVGSGLGLGGGSSYSYGSGLGVGGGFSSSSGRAIGGGLSSVGGGSSTIKYTTTSSSSRKSYKH
B5: Keratin, type II cytoskeletal 6A (Homo sapiens), P02538 (parent)
chain: B4 chain
partner: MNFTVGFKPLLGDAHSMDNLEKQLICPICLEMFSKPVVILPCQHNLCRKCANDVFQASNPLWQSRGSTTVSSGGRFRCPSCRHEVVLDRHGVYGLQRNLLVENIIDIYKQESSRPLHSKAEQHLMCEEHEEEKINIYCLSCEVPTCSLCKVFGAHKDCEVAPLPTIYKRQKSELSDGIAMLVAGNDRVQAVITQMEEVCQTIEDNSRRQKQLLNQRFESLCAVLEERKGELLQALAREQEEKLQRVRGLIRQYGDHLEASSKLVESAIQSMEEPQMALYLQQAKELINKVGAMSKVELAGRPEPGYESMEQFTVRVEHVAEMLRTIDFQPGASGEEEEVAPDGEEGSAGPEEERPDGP

Variants of: B1
Conditions: with itf2_human TCF4, P15884
Chain of itf2_human TCF4, P15884 (P15884 whole entry): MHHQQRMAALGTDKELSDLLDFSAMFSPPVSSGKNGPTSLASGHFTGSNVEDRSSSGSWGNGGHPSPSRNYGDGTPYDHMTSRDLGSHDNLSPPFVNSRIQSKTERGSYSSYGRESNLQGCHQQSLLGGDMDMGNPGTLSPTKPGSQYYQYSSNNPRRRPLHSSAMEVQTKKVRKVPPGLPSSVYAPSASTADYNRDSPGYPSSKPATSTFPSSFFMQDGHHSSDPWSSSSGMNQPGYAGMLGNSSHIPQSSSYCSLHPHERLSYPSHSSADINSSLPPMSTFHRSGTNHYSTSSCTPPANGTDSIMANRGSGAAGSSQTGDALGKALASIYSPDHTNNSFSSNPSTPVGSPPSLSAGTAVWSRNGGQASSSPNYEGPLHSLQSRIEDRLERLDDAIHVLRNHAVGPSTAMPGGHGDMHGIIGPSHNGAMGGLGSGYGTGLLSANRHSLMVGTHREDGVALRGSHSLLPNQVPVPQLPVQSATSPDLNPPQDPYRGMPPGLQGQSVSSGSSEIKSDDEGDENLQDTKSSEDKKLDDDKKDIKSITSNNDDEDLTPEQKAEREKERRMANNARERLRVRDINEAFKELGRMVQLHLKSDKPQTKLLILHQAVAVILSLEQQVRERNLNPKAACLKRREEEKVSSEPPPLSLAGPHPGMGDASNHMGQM

effect of a mutation on the interaction | Variant
disrupting interaction | A394S

Variants of: B1
Conditions: with ikzf3_human IKZF3, Q9UKT9
Chain of ikzf3_human IKZF3, Q9UKT9 (Q9UKT9 whole entry): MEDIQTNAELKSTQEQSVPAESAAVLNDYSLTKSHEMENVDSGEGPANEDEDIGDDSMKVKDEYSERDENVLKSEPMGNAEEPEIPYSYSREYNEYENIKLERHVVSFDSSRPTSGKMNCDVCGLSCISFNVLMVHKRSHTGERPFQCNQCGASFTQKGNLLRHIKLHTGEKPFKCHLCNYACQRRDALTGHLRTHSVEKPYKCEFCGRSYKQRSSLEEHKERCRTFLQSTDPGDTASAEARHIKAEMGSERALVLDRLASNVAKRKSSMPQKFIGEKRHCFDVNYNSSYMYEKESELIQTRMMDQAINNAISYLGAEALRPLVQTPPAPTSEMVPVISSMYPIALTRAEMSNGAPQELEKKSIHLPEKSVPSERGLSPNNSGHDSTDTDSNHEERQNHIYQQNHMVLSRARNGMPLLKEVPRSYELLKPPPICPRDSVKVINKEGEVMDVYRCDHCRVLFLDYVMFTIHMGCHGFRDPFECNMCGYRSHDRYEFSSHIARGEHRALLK

effect of a mutation on the interaction | Variant
disrupting interaction | A394S

Variants of: B1
Conditions: with itf2_human TCF4, P15884
Remark: another data set of the same source

effect of a mutation on the interaction | Variant
disrupting interaction | R221H

Variants of: B1
Conditions: with ikzf3_human IKZF3, Q9UKT9
Remark: another data set of the same source

effect of a mutation on the interaction | Variant
disrupting interaction | R221H

Variants of: B2
Conditions: with FBP2, O00757

effect of a mutation on the interaction | Variant
disrupting interaction | G260R

Variants of: B2
Conditions: with FBP2, O00757
Remark: another data set of the same source

effect of a mutation on the interaction | Variant
disrupting interaction | F194S

Variants of: B3
Conditions: with hgs_human HGS

effect of a mutation on the interaction | Variant
disrupting interaction | G112S

Variants of: B3
Conditions: with stam2_human STAM2, O75886

effect of a mutation on the interaction | Variant
disrupting interaction | G112S

Variants of: B3
Conditions: with reep6_human REEP6, Q96HR9
Chain of reep6_human REEP6, Q96HR9 (Q96HR9 whole entry): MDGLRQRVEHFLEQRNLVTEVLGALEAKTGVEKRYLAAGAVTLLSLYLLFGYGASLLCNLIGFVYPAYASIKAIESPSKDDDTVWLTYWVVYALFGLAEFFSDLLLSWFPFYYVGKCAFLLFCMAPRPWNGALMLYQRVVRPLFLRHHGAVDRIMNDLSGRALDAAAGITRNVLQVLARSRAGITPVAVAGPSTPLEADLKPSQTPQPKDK

effect of a mutation on the interaction | Variant
disrupting interaction | G112S

Variants of: B3
Conditions: with UBQLN1, Q9UMX0-2
Chain of UBQLN1, Q9UMX0-2 (Q9UMX0 other isoform, or with tags, fused parts or gaps): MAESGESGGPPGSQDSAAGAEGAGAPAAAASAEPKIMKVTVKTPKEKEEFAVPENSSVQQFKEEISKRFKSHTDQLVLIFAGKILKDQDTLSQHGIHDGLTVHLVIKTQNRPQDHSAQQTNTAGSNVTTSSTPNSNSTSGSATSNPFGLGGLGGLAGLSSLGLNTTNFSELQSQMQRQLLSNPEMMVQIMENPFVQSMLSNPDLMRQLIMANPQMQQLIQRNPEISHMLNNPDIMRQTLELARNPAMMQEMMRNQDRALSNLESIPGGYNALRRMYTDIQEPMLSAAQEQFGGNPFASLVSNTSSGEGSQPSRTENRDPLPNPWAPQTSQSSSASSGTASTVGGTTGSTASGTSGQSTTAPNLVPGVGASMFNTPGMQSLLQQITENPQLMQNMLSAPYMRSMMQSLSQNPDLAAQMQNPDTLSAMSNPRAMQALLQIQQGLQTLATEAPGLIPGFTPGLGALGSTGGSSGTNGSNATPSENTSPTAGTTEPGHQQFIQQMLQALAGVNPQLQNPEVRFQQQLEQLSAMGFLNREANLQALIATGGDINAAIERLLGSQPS

effect of a mutation on the interaction | Variant
disrupting interaction | G112S

Variants of: B3
Conditions: with ubql1_human UBQLN1, Q9UMX0
Chain of ubql1_human UBQLN1, Q9UMX0 (Q9UMX0 whole entry): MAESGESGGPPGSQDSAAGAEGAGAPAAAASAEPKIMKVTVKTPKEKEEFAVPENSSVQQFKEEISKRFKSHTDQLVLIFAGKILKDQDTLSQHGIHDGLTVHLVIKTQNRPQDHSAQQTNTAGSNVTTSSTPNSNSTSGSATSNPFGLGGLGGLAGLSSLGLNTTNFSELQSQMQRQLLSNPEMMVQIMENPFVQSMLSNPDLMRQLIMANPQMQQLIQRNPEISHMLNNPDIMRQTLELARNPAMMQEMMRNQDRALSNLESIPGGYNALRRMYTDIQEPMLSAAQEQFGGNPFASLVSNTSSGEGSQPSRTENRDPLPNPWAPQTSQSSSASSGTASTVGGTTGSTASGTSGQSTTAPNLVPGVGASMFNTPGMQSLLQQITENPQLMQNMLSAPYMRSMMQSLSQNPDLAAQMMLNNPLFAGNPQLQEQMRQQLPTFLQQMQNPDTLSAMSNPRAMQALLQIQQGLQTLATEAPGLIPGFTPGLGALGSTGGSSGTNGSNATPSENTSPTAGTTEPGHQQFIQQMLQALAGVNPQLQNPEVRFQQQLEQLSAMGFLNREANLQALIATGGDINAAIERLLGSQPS

effect of a mutation on the interaction | Variant
disrupting interaction | G112S

Variants of: B3
Conditions: with hgs_human HGS
Remark: another data set of the same source

effect of a mutation on the interaction | Variant
disrupting interaction | A111G

Variants of: B3
Conditions: with stam2_human STAM2, O75886
Remark: another data set of the same source

effect of a mutation on the interaction | Variant
disrupting interaction | A111G

Variants of: B3
Conditions: with reep6_human REEP6, Q96HR9
Remark: another data set of the same source

effect of a mutation on the interaction | Variant
disrupting interaction | A111G

Variants of: B3
Conditions: with UBQLN1, Q9UMX0-2
Remark: another data set of the same source

effect of a mutation on the interaction | Variant
disrupting interaction | A111G

Variants of: B3
Conditions: with ubql1_human UBQLN1, Q9UMX0
Remark: another data set of the same source

effect of a mutation on the interaction | Variant
disrupting interaction | A111G

Variants of: B4
Conditions: with tfp11_human TFIP11, Q9UBB9
Chain of tfp11_human TFIP11, Q9UBB9 (Q9UBB9 whole entry): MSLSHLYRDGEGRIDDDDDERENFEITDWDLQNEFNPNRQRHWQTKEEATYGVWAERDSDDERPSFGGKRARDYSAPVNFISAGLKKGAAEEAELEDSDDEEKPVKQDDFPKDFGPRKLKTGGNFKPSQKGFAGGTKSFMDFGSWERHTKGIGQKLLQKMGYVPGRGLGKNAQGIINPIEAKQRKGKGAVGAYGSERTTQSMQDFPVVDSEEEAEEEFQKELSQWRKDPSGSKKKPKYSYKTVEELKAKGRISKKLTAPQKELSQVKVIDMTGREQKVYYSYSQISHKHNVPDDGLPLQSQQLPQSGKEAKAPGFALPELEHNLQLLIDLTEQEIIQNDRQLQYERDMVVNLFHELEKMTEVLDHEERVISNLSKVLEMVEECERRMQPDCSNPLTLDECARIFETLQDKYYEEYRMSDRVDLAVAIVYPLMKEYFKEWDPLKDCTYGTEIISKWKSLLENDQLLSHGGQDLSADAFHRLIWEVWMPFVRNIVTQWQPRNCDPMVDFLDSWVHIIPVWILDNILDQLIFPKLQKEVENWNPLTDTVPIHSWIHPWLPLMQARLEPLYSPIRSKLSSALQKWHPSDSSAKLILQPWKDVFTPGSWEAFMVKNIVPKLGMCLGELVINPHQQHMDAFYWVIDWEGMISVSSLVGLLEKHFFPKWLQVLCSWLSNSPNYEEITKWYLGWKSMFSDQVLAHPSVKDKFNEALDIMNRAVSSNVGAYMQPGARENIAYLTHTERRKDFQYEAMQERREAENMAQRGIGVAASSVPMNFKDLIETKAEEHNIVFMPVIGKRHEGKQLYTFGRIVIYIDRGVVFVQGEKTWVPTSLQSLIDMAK

effect of a mutation on the interaction | Variant
disrupting interaction | A463P

Variants of: B4
Conditions: with tfp11_human TFIP11, Q9UBB9
Remark: another data set of the same source

effect of a mutation on the interaction | Variant
disrupting interaction | I462S

Variants of: B5
Conditions: with tri54_human TRIM54, Q9BYV2

effect of a mutation on the interaction | Variant
disrupting interaction | A463P
